From paper PMC9835395

Biological target: albumin (on albumin-functionalized agarose resin) (UniProt P07724)
Assay: pull-down; AF647-labelled eOD or amph-eOD incubated with albumin-functionalized agarose resin for 2 hours at 37°C; resin separated and protein remaining in solution measured

Chain of UniProt P07724 (P07724 25-608): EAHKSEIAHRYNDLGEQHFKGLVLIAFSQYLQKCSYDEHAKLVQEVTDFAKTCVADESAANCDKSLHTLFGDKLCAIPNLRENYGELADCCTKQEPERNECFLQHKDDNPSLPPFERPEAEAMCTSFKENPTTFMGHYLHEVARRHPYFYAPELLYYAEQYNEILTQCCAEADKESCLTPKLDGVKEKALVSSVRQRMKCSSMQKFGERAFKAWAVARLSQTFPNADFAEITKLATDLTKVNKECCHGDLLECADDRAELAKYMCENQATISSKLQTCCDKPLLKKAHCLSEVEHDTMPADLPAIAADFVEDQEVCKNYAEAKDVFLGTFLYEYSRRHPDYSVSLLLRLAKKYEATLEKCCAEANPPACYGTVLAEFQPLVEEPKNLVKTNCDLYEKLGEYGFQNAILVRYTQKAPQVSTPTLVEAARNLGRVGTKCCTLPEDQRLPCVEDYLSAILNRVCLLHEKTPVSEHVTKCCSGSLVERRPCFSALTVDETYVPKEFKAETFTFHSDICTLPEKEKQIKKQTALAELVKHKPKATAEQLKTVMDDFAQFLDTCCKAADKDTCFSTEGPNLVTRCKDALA

Substance: amph-eOD (eOD-GT8 with N-terminal cysteine and C-terminal PADRE, conjugated to PEG2K-DSPE)
- percent of added protein bound to the resin: 60%
